# Reference: US20140017764
# T1: HCV-P preferred substrate construct (DEMEECASHL)
# T1 sequence: DEMEECASHL
# T2: Aga2 substrate fusion polypeptide with HCV-P counter selection sequence and TEV-P selection substrate ENLYFQS
# T2 chain: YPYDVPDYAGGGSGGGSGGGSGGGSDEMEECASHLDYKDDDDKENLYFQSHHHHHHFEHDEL
# T3: TENLYFESGTRRW peptide substrate
# T3 chain: TENLYFESGTRRW
# T4: TENLYFHSGTRRW peptide substrate
# T4 chain: TENLYFHSGTRRW
# T5: human granzyme K preferred substrate construct (CGYGPKKKRKVGG)
# T5 chain: CGYGPKKKRKVGG
# Key:
# [1] = tested on: T1, HCV-P preferred substrate construct (DEMEECASHL)
# [2] = molecular target: human AblTK preferred substrate construct
# [3] = molecular target: T2, Aga2 substrate fusion polypeptide with …
# [4] = molecular target: T3, TENLYFESGTRRW peptide substrate
# [5] = molecular target: T4, TENLYFHSGTRRW peptide substrate
# [6] = molecular target: T5, human granzyme K preferred substrate …
molecule,measurement,setting,value
hepatitis C protease (HCV-P),YESS two-color FACS (PE / FITC),[1],displayed relatively similar PE but low FITC signals by FACS compared to the controls lacking proteases
human Abelson tyrosine kinase (AblTK) (protein) SPNYDKWEMERTDITMKHKLGGGQYGEVYEGVWKKYSLTVAVKTLKEDTMEVEEFLKEAAVMKEIKHPNLVQLLGVCTREPPFYIITEFMTYGNLLDYLRECNRQEVNAVVLLYMATQISSAMEYLEKKNFIHRDLAARNCLVGENHLVKVADFGLSRLMTGDTYTAHAGAKFPIKWTAPESLAYNKFSIKSDVWAFGVLLWEIATYGMSPYPGIDLSQVYELLEKDYRMERPEGCPEKVYELMRACWQWNPSDRPSFAEIHQAFETMFQESSISDEVEKELGK,YESS FACS (Alexa Fluor 647 anti-phosphotyrosine / anti-6xHis-FITC),[2],displayed relatively similar FITC but high Alexa Fluor@647 signals by FACS
"TEV-P anchored with a C-terminal ER retention sequence, expressed in the yeast ER (protein) SLFKGPRDYNPISSTICHLTNESDGHTTSLYGIGFGPFIITNKHLFRRNNGTLLVQSLHGVFKVKNTTTLQQHLIDGRDMIIIRMPKDFPPFPQKLKFREPQREERICLVTTNFQTKSMSSMVSDTSCTFPSSDGIFWKHWIQTKDGQCGSPLVSTRDGFIVGIHSASNFTNTNNYFTSVPKNFMELLTNQEAQQWVSGWRLNADSVLWGGHKVFMPKPEEPFQPVKEATQLMNFEHDEL",YESS two-color FACS (anti-FLAG-PE / anti-6xHis-FITC),[3],high PE but low FITC fluorescence
"TEV-PE10, purified (protein) HHHHHHSLFKGPRDYNPISSTICHLTNESDGHTTSLYGIGFGPFIITNKHLFRRNNGTLLVQSLHGVFKVKNTTTLQQHLIDGRDMIIIRMPKDFPPFPQKLKFREPQREERICLVTTNFQTKRMSSMVSDTSCTFPSSDGIFWKHWIQTKRGQCGSPLVSTRDGFIVGIHSASNFANTNKYFTSVPKNFMELLTNQEAQQWVSGWRLNADSVLWGGHKVFIPKPEEPFQPVKEATQLMN",KM,[4],12.8 µM
same,fold higher kcat/KM on TENLYFESGTRRW versus […],[4],13-fold higher kcat/KM value
same,kcat,[4],0.0255 s⁻¹
same,kcat/KM,[4],2060 M⁻¹ s⁻¹
same,reversal of substrate specificity compared to TEV-P,[4],5000-fold reversal of substrate specificity compared to TEV-P
"wild-type TEV protease (TEV-P), purified (protein) HHHHHHSLFKGPRDYNPISSTICHLTNESDGHTTSLYGIGFGPFIITNKHLFRRNNGTLLVQSLHGVFKVKNTTTLQQHLIDGRDMIIIRMPKDFPPFPQKLKFREPQREERICLVTTNFQTKSMSSMVSDTSCTFPSSDGIFWKHWIQTKDGQCGSPLVSTRDGFIVGIHSASNFTNTNNYFTSVPKNFMELLTNQEAQQWVSGWRLNADSVLWGGHKVFMPKPEEPFQPVKEATQLMN",KM,[4],1930 µM
same,fold by which kcat/KM on […] exceeds kcat/KM on TENLYFESGTRRW,[4],375-fold
same,kcat,[4],0.00609 s⁻¹
same,kcat/KM,[4],3.14 M⁻¹ s⁻¹
same,KM,[5],640 µM
same,fold by which kcat/KM on […] exceeds kcat/KM on TENLYFHSGTRRW,[5],150-fold
same,kcat,[5],0.00493 s⁻¹
same,kcat/KM,[5],7.55 M⁻¹ s⁻¹
"TEV-PH21, purified (protein) HHHHHHSLFKGPRDYNPISSAICHLTNESDGHTTSLYGIGFGPFIITNKHLFRRNNGTLLVQSLHGVFKVKNTTTLQQHLIDGRDMIIIRMPKDFPPFPQKLKFREPQREERICLVTTNFQTKSMSSMVSDTSCTFPSSDGIFWKHWIQAKPGQCGCPLVSTRDGFIVGIHTAANFANTNNYFTSVPKNFMELLTNQEAQQWVSGWRLNADSVLWGGHKVFMPKPEEPFQPVKEATQLMN",KM,[5],250 µM
same,fold higher kcat/KM on TENLYFHSGTRRW versus […],[5],7 fold
same,kcat,[5],0.0375 s⁻¹
same,kcat/KM,[5],150 M⁻¹ s⁻¹
same,reversal of substrate specificity compared to TEV-P,[5],1100-fold reversal of substrate specificity compared to TEV-P
human granzyme K protease (GrK) (protein) IIGGKEVSPHSRPFMASIQYGGHHVCGGVLIDPQWVLTAAHCQYRFTKGQSPTVVLGAHSLSKNEASKQTLEIKKFIPFSRVTSDPQSNDIMLVKLQTAAKLNKHVKMLHIRSKTSLRSGTKCKVTGWGATDPDSLRPSDTLREVTVTVLSRKLCNSQSYYNGDPFITKDMVCAGDAKGQKDSCKGDSGGPLICKGVFHAIVSGGHECGVATKPGIYTLLTKKYQTWIKSNLVPPHTN,YESS two-color FACS (PE / FITC),[6],displayed relatively similar PE but low FITC signals by FACS compared to the controls lacking proteases
